The source of these data is publication doi:10.1101/671792.

The target in this assay is polymerization-deficient p62 PB1 domain D69A/D73A (human) (UniProt Q13501). Nature of the assay: ITC.

B1: MEKK3 PB1 domain, residues 43-127 (ITC) (domain or fragment)
chain: SDVRIKFEHNGERRIIAFSRPVKYEDVEHKVTTVFGQPLDLHYMNNELSILLKNQDDLDKAIDILDRSSSMKSLRILLLSQDRNH
In the case of B1, the dissociation constant (Kd) (commonly the constant that tells how readily two partners part at equilibrium) is 26.8 nM.
